Test results as given in US20250066422A1.
One block for each binder: values may come before it.

Assays:
Assay in all cases: ProImmune REVEAL MHC-peptide binding assay
[1] = biological target: HLA-DR1 (human)
[2] = biological target: HLA-DR4 (human)
[3] = biological target: HLA-DR2 (human)
[4] = biological target: HLA-DR7 (human)
[5] = biological target: HLA-DR5 (human)

Relative Binding Score (% of positive control) [1]: 40.1
Relative Binding Score (% of positive control) [2]: 6.12
Relative Binding Score (% of positive control) [3]: 0.05
Relative Binding Score (% of positive control) [4]: 0.27
Relative Binding Score (% of positive control) [5]: 104
B1: BIR-002 (peptide, from a related filing)
peptide: TLGEFLKLDRERAKN

Relative Binding Score (% of positive control) [1]: 0.87
Relative Binding Score (% of positive control) [2]: 5.89
Relative Binding Score (% of positive control) [3]: 0.28
Relative Binding Score (% of positive control) [4]: 3.69
Relative Binding Score (% of positive control) [5]: 0.12
B2: MET-005 (peptide, from a related filing)
peptide: TFSYVDPVITSISPKYG
